In patent US20260193335A1 (ZOETIS SERVICES, published 2026) one finds Kd data, which are given here for 18 molecules.

Positions count from the first letter of the chain named. In names and notes the source's numbering stands.

The target in assay [1] is T1, Feline FcRn (complex of FcRn-α subunit and β-microglobulin, C-terminal His tag) (feline, UniProt A0ABI7ZNY9 23-296; Q5MGS7 21-118).
T1 construct: treated here as one molecule
In words: SPR Biacore, FcRn on sensor, pH 6; pH 6. As to the method:
As discussed in the above Example section, Feline FcRn was isolated, prepared and mutant Fc IgGs were assayed against feline FcRn according to Strietzelg et. al. Standard RACE PCR was used to amplify feline FcRn-α subunit and β-microglobulin. FcRn-α subunit and β-microglobulin were co-transfected into HEK 293 cells and the FcRn complex was purified by IMAC affinity purification via the c-terminal His tag. KD's were measured by Biacore 3000 or Biacore T200 (GE Healthcare, Pittsburgh, PA, USA) using a CM5 sensor chip.
FcRn was captured on the surface of the sensor using a modified SA capture method. 10 mM MES; 150 mM NaCl; 0.005% Tween20; 0.5 mg/mL BSA; pH6 was used as capture, method running buffer and titrations. 1×HBS-P, 0.5 mg/mL BSA; pH7.4 was also used for method running buffer and titrations. Fc mutant IgGs were flowed over receptor surfaces and affinity was determined using T200 evaluation software or Biacore Insight Evaluation software. Blank runs containing buffer only were subtracted out from all runs. Flow cells were regenerated using 50 mM Tris pH8 or pH9. Runs were performed at 15° C.
In general terms: In SPR one partner is held on a chip, and binding of the other changes the refractive index at the surface.

Assay [2] addresses Feline FcRn (complex of FcRn-α subunit and β-microglobulin, C-terminal His tag) (feline). Kind of assay: SPR Biacore, biotin-FcRn on SA chip, pH 6.
The target in assay [3] is T1, Feline FcRn (complex of FcRn-α subunit …). In words: SPR Biacore, biotin-FcRn on SA chip, pH 6. The procedure, abridged: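 Feline FcRn α/β-microglobulin complex, expressed in HEK 293 cells, His-tag purified and BirA-biotinylated, was captured on an SA chip. Fc mutant IgGs flowed over at 15° C in MES/NaCl/Tween20/BSA at pH 6, or HBS-P/BSA at pH 7.4. KD from buffer-blank-subtracted runs; regeneration with 50 mM Tris pH 8 or 9.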

Sequence of Feline FcRn (complex of FcRn-α subunit and β-microglobulin, C-terminal His tag) (feline) (chain, as listed by the source, chain 1 of 2): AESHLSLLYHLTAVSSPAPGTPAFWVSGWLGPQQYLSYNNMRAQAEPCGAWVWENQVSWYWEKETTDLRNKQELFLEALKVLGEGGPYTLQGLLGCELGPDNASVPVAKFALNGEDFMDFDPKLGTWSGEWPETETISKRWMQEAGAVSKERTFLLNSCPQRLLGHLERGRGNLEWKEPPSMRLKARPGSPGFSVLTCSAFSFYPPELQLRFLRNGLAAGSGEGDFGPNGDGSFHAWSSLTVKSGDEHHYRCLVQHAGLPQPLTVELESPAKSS
Sequence of Feline FcRn (complex of FcRn-α subunit and β-microglobulin, C-terminal His tag) (feline) (Q5MGS7 21-118, chain 2 of 2): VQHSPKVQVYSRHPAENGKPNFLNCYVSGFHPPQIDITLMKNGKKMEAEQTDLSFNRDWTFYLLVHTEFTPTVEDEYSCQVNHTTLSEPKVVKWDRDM

B1: mAb6 anti-TGFβ antibody ZTS-120-2, wildtype (antibody)
heavy: QVLLVQSGADVRKPGASVKIFCKASGYTFTSNVISWVRQTPAQGFEWMGGVIPIVDIANYAQRFKGRLVLTADTSTNTAYMELRSLKSADTAVYYCASTLGLVLDAMDYWGQGSLVTVSSASTTAPSVFPLAPSCGTTSGATVALACLVLGYFPEPVTVSWNSGALTSGVHTFPAVLQASGLYSLSSMVTVPSSRWLSDTFTCNVAHPPSNTKVDKTVRKTDHPPGPKPCDCPKCPPPEMLGGPSIFIFPPKPKDTLSISRTPEVTCLVVDLGPDDSDVQITWFVDNTQVYTAKTSPREEQFNSTYRVVSVLPILHQDWLKGKEFKCKVNSKSLPSPIERTISKAKGQPHEPQVYVLPPAQEELSRNKVSVTCLIKSFHPPDIAVEWEITGQPEPENNYRTTPPQLDSDGTYFVYSKLSVDRSHWQRGNTYTCSVSHEALHSHHTQKSLTQSPGK
light: EIQMTQSPSSLSASPGDRVTITCRASQSLGSSYLAWYQQKPGKVPKLLIYGASSRAPGVPSRFSGSGSGTDFTLTISSLEPEDAATYYCQQYADSPITFGQGTKLEIK
notes: also called mAb6 ID No. 14
As a reminder, the Kd is a measure of binding affinity in units of concentration. Regarding B1, in assay [1], the affinity, expressed as Kd, was 22.3 nM.

B2: mAb6 anti-TGFβ antibody ZTS-120-3, wildtype (antibody)
heavy: QVLLVQSGAEVRTPGASVKIFCKASGYGFTSNVISWVRQSPAQGLEWMGGVIPIVDIANYAQRFKGRLTLTADTSTDTAYMELSSLRSADTAMYYCASTLGLVLDAMDYWGQGTLVTVSSASTTAPSVFPLAPSCGTTSGATVALACLVLGYFPEPVTVSWNSGALTSGVHTFPAVLQASGLYSLSSMVTVPSSRWLSDTFTCNVAHPPSNTKVDKTVRKTDHPPGPKPCDCPKCPPPEMLGGPSIFIFPPKPKDTLSISRTPEVTCLVVDLGPDDSDVQITWFVDNTQVYTAKTSPREEQFNSTYRVVSVLPILHQDWLKGKEFKCKVNSKSLPSPIERTISKAKGQPHEPQVYVLPPAQEELSRNKVSVTCLIKSFHPPDIAVEWEITGQPEPENNYRTTPPQLDSDGTYFVYSKLSVDRSHWQRGNTYTCSVSHEALHSHHTQKSLTQSPGK
light: B1 light
notes: also called mAb6 ID No. 16
Consider B2, for which the Kd in assay [1] worked out at 20.5 nM.

B3: mAb4 (felinized anti-IL31 antibody ZTS-5864) S428E, feline IgG1a (antibody, part only; not given: light constant region, not shown: another chain or arm of the molecule)
heavy: DVQLVESGGDLVKPGGSLRLTCVASGFTFSDYAMSWVRQAPGKGLQWVAGIDSVGSGTSYADSVKGRFTISRDNAKNTLYLQMNSLKTEDTATYYCASGFPGSFEHWGQGTLVTVSSASTTAPSVFPLAPSCGTTSGATVALACLVLGYFPEPVTVSWNSGALTSGVHTFPAVLQASGLYSLSSMVTVPSSRWLSDTFTCNVAHPPSNTKVDKTVRKTDHPPGPKPCDCPKCPPPEMLGGPSIFIFPPKPKDTLSISRTPEVTCLVVDLGPDDSDVQITWFVDNTQVYTAKTSPREEQFNSTYRVVSVLPILHQDWLKGKEFKCKVNSKSLPSPIERTISKAKGQPHEPQVYVLPPAQEELSRNKVSVTCLIKSFHPPDIAVEWEITGQPEPENNYRTTPPQLDSDGTYFVYSKLSVDRSHWQRGNTYTCSVEHEALHSHHTQKSLTQSPGK
VL: QSVLTQPSSVSGTLGQRITISCTGSSSNIGSGYVGWYQQVPGMGPKTVIYYNSDRPSGVPDRFSGSKSGSSGTLTITGLQAEDEADYYCSVYDRTFNAVFGGGT
Regarding B3, in assay [2], the Kd was 37.9 nM.

B4: mAb4 (felinized anti-IL31 antibody ZTS-5864) S428I, feline IgG1a (antibody, part only; not given: light constant region, not shown: another chain or arm of the molecule)
heavy: B3 heavy with E433I
VL: B3 VL
The molecule B4 returned a Kd in assay [2] of 16.7 nM.

B5: mAb4 (felinized anti-IL31 antibody ZTS-5864) S428N, feline IgG1a (antibody, part only; not given: light constant region, not shown: another chain or arm of the molecule)
heavy: B3 heavy with E433N
VL: B3 VL
As to B5, the Kd in assay [2] is 49 nM.

B6: mAb4 (felinized anti-IL31 antibody ZTS-5864) S428K, feline IgG1a (antibody, part only; not given: light constant region, not shown: another chain or arm of the molecule)
heavy: B3 heavy with E433K
VL: B3 VL
Consider B6, for which the Kd in assay [2] stood at 21.4 nM.

B7: mAb4 (felinized anti-IL31 antibody ZTS-5864) S428M, feline IgG1a (antibody, part only; not given: light constant region, not shown: another chain or arm of the molecule)
heavy: B3 heavy with E433M
VL: B3 VL
In assay [2], B7 came in with a Kd of 18.8 nM.

B8: mAb4 (felinized anti-IL31 antibody ZTS-5864) S428F, feline IgG1a (antibody, part only; not given: light constant region, not shown: another chain or arm of the molecule)
heavy: B3 heavy with E433F
VL: B3 VL
Turning to B8, the Kd in assay [2] amounted to 29.7 nM.

B9: mAb4 (felinized anti-IL31 antibody ZTS-5864) S428H, feline IgG1a (antibody, part only; not given: light constant region, not shown: another chain or arm of the molecule)
heavy: B3 heavy with E433H
VL: B3 VL
B9 gave a Kd in assay [2] of 25.5 nM.

B10: mAb4 (felinized anti-IL31 antibody ZTS-5864) S428Y and S434H, feline IgG1a (antibody)
heavy: B3 heavy with E433Y, S439H
VL: B3 VL
notes: also called mAb4 ID No. 27
On to B10, for which the Kd in assay [3] was 18.8 nM.

B11: mAb4 (felinized anti-IL31 antibody ZTS-5864) S428Y and S434L, feline IgG1a (antibody)
heavy: B3 heavy with E433Y, S439L
VL: B3 VL
notes: also called mAb4 ID No. 29
Turning to B11, the Kd in assay [3] came out at 44 nM.

B12: mAb4 (felinized anti-IL31 antibody ZTS-5864) S428Y and S434P, feline IgG1a (antibody)
heavy: B3 heavy with E433Y, S439P
VL: B3 VL
notes: also called mAb4 ID No. 30
For the molecule B12, binding in assay [3] was put at a Kd of 40.6 nM.

B13: mAb4 (felinized anti-IL31 antibody ZTS-5864) S428Y, feline IgG1a (antibody)
heavy: B3 heavy with E433Y
VL: B3 VL
notes: also called mAb4 ID No. 20
For B13, binding in assay [3] was put at a Kd of 63.4 nM.

B14: mAb6 anti-TGFβ antibody ZTS-120-1, wildtype (antibody)
heavy: QVQLVQSGAEVKKPGSSVKVSCKASGYTFSSNVISWVRQAPGQGLEWMGGVIPIVDIANYAQRFKGRVTITADESTSTTYMELSSLRSEDTAVYYCASTLGLVLDAMDYWGQGTLVTVSSASTTAPSVFPLAPSCGTTSGATVALACLVLGYFPEPVTVSWNSGALTSGVHTFPAVLQASGLYSLSSMVTVPSSRWLSDTFTCNVAHPPSNTKVDKTVRKTDHPPGPKPCDCPKCPPPEMLGGPSIFIFPPKPKDTLSISRTPEVTCLVVDLGPDDSDVQITWFVDNTQVYTAKTSPREEQFNSTYRVVSVLPILHQDWLKGKEFKCKVNSKSLPSPIERTISKAKGQPHEPQVYVLPPAQEELSRNKVSVTCLIKSFHPPDIAVEWEITGQPEPENNYRTTPPQLDSDGTYFVYSKLSVDRSHWQRGNTYTCSVSHEALHSHHTQKSLTQSPGK
light: ETVLTQSPGTLSLSPGERATLSCRASQSLGSSYLAWYQQKPGQAPRLLIYGASSRAPGIPDRFSGSGSGTDFTLTISRLEPEDFAVYYCQQYADSPITFGQGTKLEIK
notes: also called mAb6 ID No. 12
B14: in assay [1], the affinity, expressed as Kd, was 35.2 nM.

B15: mAb5 (felinized anti-IL31 antibody) S428L, feline IgG1a (antibody, part only; not given: variable domains of mAb5, not shown: another chain or arm of the molecule; small tags and cut ends)
constant: ASTTAPSVFPLAPSCGTTSGATVALACLVLGYFPEPVTVSWNSGALTSGVHTFPAVLQASGLYSLSSMVTVPSSRWLSDTFTCNVAHPPSNTKVDKTVRKTDHPPGPKPCDCPKCPPPEMLGGPSIFIFPPKPKDTLSISRTPEVTCLVVDLGPDDSDVQITWFVDNTQVYTAKTSPREEQFNSTYRVVSVLPILHQDWLKGKEFKCKVNSKSLPSPIERTISKAKGQPHEPQVYVLPPAQEELSRNKVSVTCLIKSFHPPDIAVEWEITGQPEPENNYRTTPPQLDSDGTYFVYSKLSVDRSHWQRGNTYTCSVLHEALHSHHTQKSLTQSPGK
B15 gave a Kd in assay [2] of 8.65 nM.

B16: mAb5 (felinized anti-IL31 antibody) S428M and S434L, feline IgG1a (antibody, part only; not given: variable domains of mAb5, not shown: another chain or arm of the molecule; small tags and cut ends)
constant: B15 constant with L316M, S322L
In the case of B16, the Kd in assay [2] is 18.6 nM.

B17: mAb5 (felinized anti-IL31 antibody) S428M and S434P, feline IgG1a (antibody, part only; not given: variable domains of mAb5, not shown: another chain or arm of the molecule; small tags and cut ends)
constant: B15 constant with L316M, S322P
For the molecule B17, the Kd in assay [2] amounted to 33.2 nM.

B18: mAb6 anti-TGFβ antibody ZTS-310, wildtype (antibody, IgG1a)
heavy: QVLLVQSGAEVRRPGASVKIFCKASGYSFTSSWMNWLRQAPAQGFEWMGQIYPGDGDTNYNGKFKGRLTLTADTSTDTAYMELSSLRSADTAVYYCARHYDGSTDYWGHGTIVTVSSASTTAPSVFPLAPSCGTTSGATVALACLVLGYFPEPVTVSWNSGALTSGVHTFPAVLQASGLYSLSSMVTVPSSRWLSDTFTCNVAHPPSNTKVDKTVRKTDHPPGPKPCDCPKCPPPEMLGGPSIFIFPPKPKDTLSISRTPEVTCLVVDLGPDDSDVQITWFVDNTQVYTAKTSPREEQFNSTYRVVSVLPILHQDWLKGKEFKCKVNSKSLPSPIERTISKAKGQPHEPQVYVLPPAQEELSRNKVSVTCLIKSFHPPDIAVEWEITGQPEPENNYRTTPPQLDSDGTYFVYSKLSVDRSHWQRGNTYTCSVSHEALHSHHTQKSLTQSPGK
light: AITMTQSPGSLAGSPGQQVTMNCRASENIYSNLAWYQQKPGQHPKLLIYAATNLADGVPDRFSGSGSGTDFTLTISNLQAEDVASYYCQHFWGTPYTFGGGTK
notes: 'Feline IgG1a subclass B was used'; The listing names the entries heavy chain and light chain; also called mAb6 ID No. 1; ZTS-310 WT
For B18, in assay [1], the Kd is 147 nM.
